Patent US20240101692A1 (CEMM FORSCHUNGSZENTRUM F R MOLEKULARE MEDIZIN, published 2024)
Positions count from the first letter of the chain named.

Key:
[1] = target: T1, Flag-mouse APRIL (mouse, UniProt Q9D777 96-241, limits assumed); assay: Western blot of 50 ng Flag-mAPRIL after SDS-PAGE
T1 construct: Denatured in the assay (SDS-PAGE and Western blot)
T1 sequence (looked up): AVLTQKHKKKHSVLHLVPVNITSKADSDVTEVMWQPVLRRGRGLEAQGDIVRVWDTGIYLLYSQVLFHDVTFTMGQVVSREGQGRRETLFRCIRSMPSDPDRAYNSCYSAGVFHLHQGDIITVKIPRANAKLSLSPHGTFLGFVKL
Description: 50 ng of Flag-mouse APRIL “m” or Flag-human APRIL “h” were analyzed by SDS-PAGE on a 12% acrylamide gel, followed by Western blotting with the indicated anti-APRIL antibodies at 1 μg/ml, followed by HRP-coupled anti-mouse secondary reagent, or with a biotinylated anti-Flag antibody (M2-biot) followed by HRP-coupled streptavidin. The micration of molecular weight markers (in kDa) are indicated on the left-hand side.

[2] = target: T2, Fc-hAPRIL C-terminal truncation ps4187 (aa 98-230) (human, UniProt O75888 115-247); assay: sandwich ELISA on supernatant of transfected cells, capture Aprily5, detection Aprily 1-biot
T2 construct: also called Fc-APRIL-ps4187
T2 sequence: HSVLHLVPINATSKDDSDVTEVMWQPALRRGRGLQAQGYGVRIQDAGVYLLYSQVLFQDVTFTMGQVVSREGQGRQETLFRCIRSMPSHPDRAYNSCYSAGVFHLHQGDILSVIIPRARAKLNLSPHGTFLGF

[3] = target: T3, Fc-hAPRIL C-terminal truncation ps4185 (aa 98-232) (human, UniProt O75888 115-249); assay: as above
T3 construct: also called Fc-APRIL-ps4185
T3 sequence: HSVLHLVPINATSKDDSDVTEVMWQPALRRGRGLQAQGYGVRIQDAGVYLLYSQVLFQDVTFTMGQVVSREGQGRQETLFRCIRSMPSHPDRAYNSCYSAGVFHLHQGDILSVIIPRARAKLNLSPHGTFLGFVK

[4] = target: T4, Fc-hAPRIL C-terminal truncation ps4186 (aa 98-231) (human, UniProt O75888 115-248); assay: as above
T4 construct: also called Fc-APRIL-ps4186
T4 sequence: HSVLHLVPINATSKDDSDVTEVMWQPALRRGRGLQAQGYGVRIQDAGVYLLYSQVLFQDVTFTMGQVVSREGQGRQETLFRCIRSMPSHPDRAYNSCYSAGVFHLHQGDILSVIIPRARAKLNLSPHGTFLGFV

[5] = target: T5, Fc-hAPRIL WT (ps1307) (human, UniProt O75888 115-250); assay: as above
T5 construct: APRIL residues are counted from Met18; also called Fc-APRIL-ps1307
T5 sequence: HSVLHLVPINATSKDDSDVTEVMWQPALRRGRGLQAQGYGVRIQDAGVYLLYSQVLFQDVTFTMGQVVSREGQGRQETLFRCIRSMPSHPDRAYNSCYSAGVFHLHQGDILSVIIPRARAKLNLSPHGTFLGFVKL

[6] = target: T6, Fc-hAPRIL C-terminal truncation ps4188 (aa 98-229) (human, UniProt O75888 115-246); assay: as above
T6 construct: also called Fc-APRIL-ps4188
T6 sequence: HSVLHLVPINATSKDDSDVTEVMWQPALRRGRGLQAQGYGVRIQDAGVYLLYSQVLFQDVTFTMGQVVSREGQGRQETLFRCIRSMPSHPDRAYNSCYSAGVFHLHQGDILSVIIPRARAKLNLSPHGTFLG

[7] = target: T2, Fc-hAPRIL C-terminal truncation ps4187 …; assay: sandwich ELISA on supernatant of transfected cells, capture Aprily5, detection Aprily2-biot
[8] = target: T3, Fc-hAPRIL C-terminal truncation ps4185 …; assay: as above
[9] = target: T4, Fc-hAPRIL C-terminal truncation ps4186 …; assay: as above
[10] = target: T5, Fc-hAPRIL WT (ps1307); assay: as above
[11] = target: T6, Fc-hAPRIL C-terminal truncation ps4188 …; assay: as above
[12] = target: heparan sulfate proteoglycan 2 (human, UniProt P98160 22-4391); assay: confocal microscopy of human coronary artery specimens stained with Aprily 2 and anti-HSPG2

B1: Aprily 1 (antibody, V domains shown)
VH: QIQLVQSGPELKKPGETVRISCKASGYNFKTSGMSWVKQAPGKGLKWMGWIDTYAGVPTYTDDFKGRFVFSLETSATTAFLQINNLKNEDTGTYFCAREPGTDNWGQGTSLTVSS
VL: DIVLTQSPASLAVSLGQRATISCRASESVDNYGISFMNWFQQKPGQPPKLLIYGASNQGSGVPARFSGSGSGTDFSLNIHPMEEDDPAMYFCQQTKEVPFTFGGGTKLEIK
notes: Anti-human APRIL monoclonal antibody; Used biotinylated as detection antibody in some ELISAs; also called Aprily 1-biot
- binding result [1]: no binding (tested: 1 µg/ml)
- binding result [2]: binds
- binding result [3]: binds
- binding result [4]: binds
- binding result [5]: binds
- binding result [6]: binds

B2: Aprily 2 (antibody, V domains shown)
VH: B1 VH with N28T, T53A, V57I, V69A, E73D
VL: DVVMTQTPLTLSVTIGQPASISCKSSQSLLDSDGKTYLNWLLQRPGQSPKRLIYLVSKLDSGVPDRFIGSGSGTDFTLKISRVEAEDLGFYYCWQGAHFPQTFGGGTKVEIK
notes: Anti-human APRIL monoclonal antibody; Used coupled to beads for depletion and biotinylated for detection; also called Aprily 2-biot
- binding result [1]: no binding (tested: 1 µg/ml)
- binding result [7]: binds
- binding result [8]: binds
- binding result [9]: binds
- binding result [10]: binds
- binding result [11]: binds

B3: APRIL in human arteries (ligand)
chain: AVLTQKQKKQHSVLHLVPINATSKDDSDVTEVMWQPALRRGRGLQAQGYGVRIQDAGVYLLYSQVLFQDVTFTMGQVVSREGQGRQETLFRCIRSMPSHPDRAYNSCYSAGVFHLHQGDILSVIIPRARAKLNLSPHGTFLGFVKL
notes: Endogenous protein in tissue sections
- binding result [12]: binds
